Test results published in publication PMC10239968, “[^18F]AlF-NOTA-ADH-1: A new PET molecular radiotracer for imaging of N-cadherin-positive tumors” (Frontiers in Oncology, 2023).
Where two headings read alike, the source gives them in different places.

Key:
[1] = format: physicochemical
Protocol: The partition coefficient of [^18F]AlF-NOTA-ADH-1 was measured by assessing the distribution of radioactivity in 1-octanol and phosphate buffer in a 2 mL centrifuge tube. 20µL of [^18F]AlF-NOTA-ADH-1 solution was added to a tube containing 0.5 mL each of 1-octanol and PBS. The mixture was vortexed and centrifuged (5,000 r/min) for 5 min. A total of 2 samples (50 μL) were collected from each layer and were assayed in a γ counter. Partition coefficients (log Po/w) are shown as the log counts in 1-octanol vs. PBS layers (n=3).

[2] = in vivo; parameters: species or system BALB/c nu/nu mice; settings: female, BALB/c nu/nu, mouse, in vivo, iv, 0.74 MBq (20 uCi) per mouse, total radioactivity
Protocol: (§1) All animal experiments were performed in accordance with and approved by the Institutional Animal Care and Use Committee guidelines of the First Affiliated Hospital of Zhejiang University School of Medicine. BALB/c nu/nu mice (female, 20 ± 3 g, 4- to 6-week-old; Department of Laboratory Animal Science, Zhejiang University) were used in this study. The SW480 and BxPC3 xenografts were generated, and 5×10^6 tumor cells were subcutaneously injected into the flanks of female athymic nude mice. The PDX-bearing mouse models were established as follows. Pancreatic cancer (diagnosed as pancreatic ductal adenocarcinoma) tissues were obtained from the surgery of a patient. Written informed consent was obtained from the patient, and the research protocol was approved by the Clinical Research Ethics Committee of the First Affiliated Hospital of Zhejiang University School of Medicine. The sample was sectioned into about 1mm^3 pieces, and the tumor tissues were subcutaneously implanted into BALB/c nu/nu mice flanks. Mice were allowed free access to sterile water and food and were kept under strict disease-free conditions with controlled temperature (~25°C), humidity (50-70%), and circadian rhythms (12-hour light/dark cycles). All necessary procedures were carried out to minimize discomfort and avoid the waste of animals. The length and width of the tumor were measured every other day. Biodistribution studies and positron emission tomography in mice were performed after the tumor volume reached 150 to 200 mm^3.
(§2) The BALB/c nude mice were randomized into different tumor models (SW480, BxPC3, and pancreatic PDX), including 5 mice per group. Each nude mouse was injected with 0.74MBq (20μCi) [^18F]AlF-NOTA-ADH-1 through the caudal vein. Blood was collected from the orbit, and the mice were dissected to collect the brain, heart, lung, liver, liver, spleen, stomach, intestine, muscle, bone and others at 30 min, […], 60min, 90min and 120min after injection. In the blocked group, the study was performed with a saturating dose of ADH-1 (20 mg/kg of mouse body weight) intravenously administered 60min before the intravenous injection of [^18F]AlF-NOTA-ADH-1 in the pancreatic PDX model and SW480 xenograft model. The mice in the tumor xenograft model were sacrificed 1h after [^18F]AlF-NOTA-ADH-1 injection. The nude mice were dissected, and tumor tissues and related tissues (blood, brain, heart, lung, liver, spleen, kidney, stomach, intestine, muscle and bone) were weighed, and their radioactivity was measured by γ-counter. The radioactivity results were recorded as % ID/g.

[3] = system: SW480 tumor xenografts; format: in vivo, BALB/c nu/nu mice; settings: SW480 xenograft nude mice, n=5, mean±SD
Protocol: as §1, §2

[4] = system: pancreatic PDX tumor xenografts; test: Micro-PET imaging, PDX tumor model; format: in vivo, nude mice; settings: 60 min p.i.
Protocol: (§3) [^18F]AlF-NOTA-ADH-1 was evaluated by micro-PET imaging on nude mice bearing a PDX tumor, SW-480 and BxPC3 tumor xenografts. Each tumor-bearing nude mouse was injected with 3.7MBq [^18F]AlF-NOTA-ADH-1 via the tail vein. After being anesthetized with isoflurane, tumor-bearing nude mice were imaged using a micro-PET/CT scanner at 60 minutes post-injection under continuous isoflurane inhalation using a nasal mask with a connecting tube. Micro-PET/CT scanning was performed after low-dose 3D acquisition CT scanning at 10 minutes per bed. A blocking study was conducted, in which a saturating dose of unlabeled ADH-1 (20 mg/kg of mouse body weight) was intravenously administered 60 min before the intravenous injection of [^18F]AlF-NOTA-ADH-1.
(§4) The three-dimensional volume of interest (VOI) was used to assess the standard uptake value (SUV) of selected organs. The Seimens Inveon analysis software configured with micro-PET/CT was used to delineate the region of interest along the edge of the tumor and each normal tissue on the PET image. Subsequently, the SUV of each region of interest was measured, and the tumor/non-tumor ratio (T/NT) between the tumor and normal tissue was measured.

[5] = system: SW480 tumor xenografts; test: Micro-PET imaging, SW480 tumor model; format: in vivo, nude mice; settings: SW480 tumor-bearing nude mouse model, 60 min after injecting, non-blocked
Protocol: as §3, §4

[6] = blocking (ADH-1 20 mg/kg i.v. 60min before), 60min p.i.

Structure (SMILES): CC(=O)N[C@H]1CSSC[C@@H](C(=O)NCCNC(=O)CN2CCN(CC(=O)O)CCN(CC(=O)O)CC2)NC(=O)[C@H](C(C)C)NC(=O)[C@H](C)NC(=O)[C@H](Cc2c[nH]cn2)NC1=O [[^18F]AlF-NOTA-ADH-1]
- Partition coefficient (log Po/w) [1]: -2.45 ± 0.09
- tissue uptake at 0.5 h ([2]; Blood uptake): 0.69 ± 0.22 %ID/g
- tissue uptake at 1 h ([2]; Blood uptake): 0.4 ± 0.18 %ID/g
- tissue uptake at 1.5 h ([2]; Blood uptake): 0.39 ± 0.11 %ID/g
- tissue uptake at 2 h ([2]; Blood uptake): 0.41 ± 0.07 %ID/g
- tissue uptake at 0.5 h ([2]; Bone uptake): 1.74 ± 0.81 %ID/g
- tissue uptake at 1 h ([2]; Bone uptake): 2.29 ± 0.96 %ID/g
- tissue uptake at 1.5 h ([2]; Bone uptake): 1.65 ± 1.3 %ID/g
- tissue uptake at 2 h ([2]; Bone uptake): 0.74 ± 0.35 %ID/g
- tissue uptake at 0.5 h ([2]; Brain uptake): 0.62 ± 0.14 %ID/g
- tissue uptake at 1 h ([2]; Brain uptake): 0.99 ± 0.47 %ID/g
- tissue uptake at 1.5 h ([2]; Brain uptake): 0.63 ± 0.18 %ID/g
- tissue uptake at 2 h ([2]; Brain uptake): 0.51 ± 0.27 %ID/g
- tissue uptake at 0.5 h ([2]; Heart uptake): 2.54 ± 0.97 %ID/g
- tissue uptake at 1 h ([2]; Heart uptake): 0.96 ± 0.17 %ID/g
- tissue uptake at 1.5 h ([2]; Heart uptake): 0.95 ± 0.25 %ID/g
- tissue uptake at 2 h ([2]; Heart uptake): 0.81 ± 0.28 %ID/g
- tissue uptake at 0.5 h ([2]; Intestines uptake): 3.82 ± 0.12 %ID/g
- tissue uptake at 1 h ([2]; Intestines uptake): 2.14 ± 0.04 %ID/g
- tissue uptake at 1.5 h ([2]; Intestines uptake): 3.93 ± 2.67 %ID/g
- tissue uptake at 2 h ([2]; Intestines uptake): 2.53 ± 2 %ID/g
- tissue uptake at 1 h ([2]; Muscle uptake): 1.56 ± 0.07 %ID/g
- tissue uptake at 1.5 h ([2]; Muscle uptake): 2.03 ± 0.05 %ID/g
- tissue uptake at 2 h ([2]; Muscle uptake): 1.18 ± 0.6 %ID/g
- tissue uptake at 0.5 h ([2]; Skin uptake): 0.11 ± 0.04 %ID/g
- tissue uptake at 1 h ([2]; Skin uptake): 0.95 ± 0.46 %ID/g
- tissue uptake at 1.5 h ([2]; Skin uptake): 1.51 ± 0.02 %ID/g
- tissue uptake at 2 h ([2]; Skin uptake): 1.56 ± 0.66 %ID/g
- tissue uptake at 0.5 h ([2]; Stomach uptake): 3.23 ± 1.69 %ID/g
- tissue uptake at 1 h ([2]; Stomach uptake): 3.4 ± 0.12 %ID/g
- tissue uptake at 1.5 h ([2]; Stomach uptake): 6.16 ± 1.58 %ID/g
- tissue uptake at 2 h ([2]; Stomach uptake): 1.6 ± 1.04 %ID/g
- T/Blood ratio [3, 6]: 3.96±0.33
- T/Muscle ratio [3, 6]: 1.03±0.56
- Tumor uptake [3, 6]: 1.07±0.57 %ID/g
- T/Blood ratio ([3]; non-blocking, 30min p.i.): 5.77±0.13
- T/Muscle ratio ([3]; non-blocking, 30min p.i.): 1.75±0.47
- Tumor uptake ([3]; non-blocking, 30min p.i.): 1.73±0.11 %ID/g
- T/Blood ratio ([3]; non-blocking, 60min p.i.): 7.42±1.01
- T/Muscle ratio ([3]; non-blocking, 60min p.i.): 1.91±0.69
- Tumor uptake ([3]; non-blocking, 60min p.i.): 2.08±1.64 %ID/g
- T/Blood ratio ([3]; non-blocking, 90min p.i.): 9.6±0.76
- T/Muscle ratio ([3]; non-blocking, 90min p.i.): 1.23±0.92
- Tumor uptake ([3]; non-blocking, 90min p.i.): 0.96±0.15 %ID/g
- T/Blood ratio ([3]; non-blocking, 120min p.i.): 6.08±0.35
- T/Muscle ratio ([3]; non-blocking, 120min p.i.): 0.86±0.23
- Tumor uptake ([3]; non-blocking, 120min p.i.): 0.73±0.67 %ID/g
- Micro-PET tumor/muscle ratio ([4]; 3.7MBq i.v., SUV-based T/NT): 8.069±2.832
- Micro-PET T/Lung ([4]; printed in the sentence on blocking with unlabeled ADH-1 (group unclear)): 5.062 ± 0.805
- Micro-PET T/Bone [5]: 1.903±0.273
- Micro-PET T/Lung [5]: 3.359±2.998
- Micro-PET tumor/muscle ratio [5]: 1.443±0.121
